Data from paper PMC12024540, “Peptide-Based Regulation of TNF-α-Mediated Cytotoxicity” (Biomolecules, 2025).
Where two headings read alike, the source gives them in different places.

B1: OB8 peptide (peptide)
peptide: KRWSRYFWVDMTGTR
B2: OB2 peptide (peptide)
peptide: KGGGSGGGSGGGSRKEMGQV
B3: OB1 peptide (peptide)
peptide: KGGGSGGGSHIHDDLLRYYGW

Key:
[1] = molecular target: recombinant human tumor necrosis factor alpha (rhTNF-α) (human)
[2] = molecular target: recombinant human tumor necrosis factor alpha (rhTNF-α) (human); experiment: MST; labelled rhTNF-α (RED-NHS 2nd Generation) at 20 nM, peptide titrated in 16 serial dilutions, PBS, 20 min incubation in the dark, Monolith NT.115 Pico, medium MST power
[3] = molecular target: recombinant human tumor necrosis factor alpha (rhTNF-α) (human); remark: listed apart in the source

Chain of recombinant human tumor necrosis factor alpha (rhTNF-α) (human) (P01375 77-233): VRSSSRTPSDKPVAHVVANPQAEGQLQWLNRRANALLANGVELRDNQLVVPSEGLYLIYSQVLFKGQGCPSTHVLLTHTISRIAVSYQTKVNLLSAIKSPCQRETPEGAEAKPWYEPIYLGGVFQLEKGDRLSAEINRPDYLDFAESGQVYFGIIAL

Binder	neutralization of TNF-α-induced cytotoxicity on L929 cells (MTT, 1 ng/mL TNF-α with actinomycin D, peptide 1 pM to 10 μM); blocks TNF-α with TNFR1 [1] [µM]	Kd [2] [nM]	neutralization of TNF-α-induced cytotoxicity on L929 cells (MTT, 1 ng/mL TNF-α with actinomycin D, peptide 1 pM to 10 μM); blocks TNF-α with TNFR1 [3]
B1	7.5	3890	–
B2	–	46.7	81 pM
B3	–	300	4.6 nM
